target: T1, Recombinant HpHbR N-terminal domain (Trypanosoma brucei haptoglobin-haemoglobin receptor) (Trypanosoma brucei brucei, biotin (only for the protein coated on streptavidin-coated plates; site not stated)); test: ELISA; phage ELISA: 10 ug/ml TbHpHbR NTD coated onto Nunc Maxisorp plates or 5 ug/mL biotinylated protein on streptavidin-coated plates overnight at 4°C; blocked phage supernatants 1 hr at room temperature; bound phage detected with anti-M13 HRP antibody; BSA and streptavidin in parallel; conditions: one partner purified
T1 construct: also called HpHbR NTD; TbHpHbR NTD; source: recombinant, expressed as previously described [34]

Binder	binding result
Tb017 scFv (scFv, V domains shown, framework domains and CDR1-3 marked; source: phage produced from E. coli, phage-containing supernatant) VH: QVQLVQSGAEVKKPGSSVKVSCKASGGTFSSYAISWVRQAPGQGLEWMGGIIPIFGTANYAQKFQGRVTITADESTSTAYMELSSLRSEDTAVYYCARGWWYDLVFDYWGQGTLVTVSS VL: not shown	binds
Tb073 scFv (scFv, V domains shown, framework domains and CDR1-3 marked; source: phage produced from E. coli, phage-containing supernatant) VH: QVQLVQSGAEVKKPGSSVKVSCKASGGTFSSYAISWVRQAPGQGLEWMGGIIPIFGTANYAQKFQGRVTITADESTSTAYMELSSLRSEDTAVYYCARGWYDMGDFDMWGQGTLVTVSS VL: QSVLTQPPSASGTPGQRVTISCSGSSSNIGSNTVNWYQQLPGTAPKLLIYSNNQRPSGVPDRFSGSKSGTSASLAISGLQSEDEADYYCAAWDWHHGHVVVFGGGTKLTVL	binds
Tb085 scFv (scFv, V domains shown, framework domains and CDR1-3 marked; source: phage produced from E. coli, phage-containing supernatant) VH: QVQLVQSGAEVKKPGSSVKVSCKASGGTFSSYAISWVRQAPGQGLEWMGGIIPIFGTANYAQKFQGRVTITADESTSTAYMELSSLRSEDTAVYYCAREGWDYGWFDFWGQGTLVTVSS VL: not shown	binds
Tb078 scFv (scFv, V domains shown, framework domains and CDR1-3 marked; source: phage produced from E. coli, phage-containing supernatant) VH: QVQLVQSGAEVKKPGSSVKVSCKASGGTFSSYAISWVRQAPGQGLEWMGGIIPIFGTANYAQKFQGRVTITADESTSTAYMELSSLRSEDTAVYYCARGWIYEFIIDAWGQGTLVTVSS VL: not shown	binds
Tb074 scFv (scFv, V domains shown, framework domains and CDR1-3 marked; source: phage produced from E. coli, phage-containing supernatant) VH: QVQLVQSGAEVKKPGSSVKVSCKASGGTFSSYAISWVRQAPGQGLEWMGGIIPIFGTANYAQKFQGRVTITADESTSTAYMELSSLRSEDTAVYYCARGWWHEPGFDYWGQGTLVTVSS VL: not shown	binds
Tb086 scFv (scFv, V domains shown, framework domains and CDR1-3 marked; source: phage produced from E. coli, phage-containing supernatant) VH: QVQLVQSGAEVKKPGSSVKVSCKASGGTFSSYAISWVRQAPGQGLEWMGGIIPIFGTANYAQKFQGRVTITADESTSTAYMELSSLRSEDTAVYYCARGWYYHGGIDYWGQGTLVTVSS VL: not shown	binds
